Patent US20070254313A1, “Gnal Splice Variant and Uses Thereof” (AstraZeneca AB, priority 2003, published 2007)

Assays:
[1] = target: human adenosine A2a receptor (ADORA2A) (human) (UniProt P29274); test: cell-based or functional assay
[2] = target: human dopamine D1A receptor (human) (UniProt P21728); test: cell-based or functional assay
human dopamine D1A receptor (human), sequence (P21728 whole entry): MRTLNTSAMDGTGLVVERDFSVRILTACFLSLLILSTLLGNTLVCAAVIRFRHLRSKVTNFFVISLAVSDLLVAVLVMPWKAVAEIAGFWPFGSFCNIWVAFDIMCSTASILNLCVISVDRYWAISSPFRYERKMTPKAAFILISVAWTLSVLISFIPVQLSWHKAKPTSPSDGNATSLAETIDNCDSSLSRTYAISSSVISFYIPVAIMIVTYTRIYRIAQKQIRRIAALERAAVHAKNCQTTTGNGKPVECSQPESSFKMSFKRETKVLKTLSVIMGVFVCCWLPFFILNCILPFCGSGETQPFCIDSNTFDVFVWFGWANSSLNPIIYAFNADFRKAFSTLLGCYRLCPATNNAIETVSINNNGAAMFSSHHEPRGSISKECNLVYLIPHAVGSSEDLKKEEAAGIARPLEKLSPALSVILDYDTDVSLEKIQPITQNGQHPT

human Golf protein, sequence (P38405 2-381 limits assumed): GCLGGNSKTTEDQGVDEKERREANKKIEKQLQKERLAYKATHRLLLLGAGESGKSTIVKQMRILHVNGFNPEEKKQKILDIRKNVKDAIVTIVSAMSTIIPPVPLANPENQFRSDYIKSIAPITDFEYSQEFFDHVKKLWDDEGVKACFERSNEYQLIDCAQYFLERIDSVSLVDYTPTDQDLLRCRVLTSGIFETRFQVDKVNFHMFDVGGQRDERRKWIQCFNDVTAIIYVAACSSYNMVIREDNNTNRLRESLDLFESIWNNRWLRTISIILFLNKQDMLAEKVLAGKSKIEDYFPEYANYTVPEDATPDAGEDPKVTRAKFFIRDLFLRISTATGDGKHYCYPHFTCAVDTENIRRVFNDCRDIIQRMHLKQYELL
human adenosine A2a receptor (ADORA2A) (human), sequence (P29274 whole entry): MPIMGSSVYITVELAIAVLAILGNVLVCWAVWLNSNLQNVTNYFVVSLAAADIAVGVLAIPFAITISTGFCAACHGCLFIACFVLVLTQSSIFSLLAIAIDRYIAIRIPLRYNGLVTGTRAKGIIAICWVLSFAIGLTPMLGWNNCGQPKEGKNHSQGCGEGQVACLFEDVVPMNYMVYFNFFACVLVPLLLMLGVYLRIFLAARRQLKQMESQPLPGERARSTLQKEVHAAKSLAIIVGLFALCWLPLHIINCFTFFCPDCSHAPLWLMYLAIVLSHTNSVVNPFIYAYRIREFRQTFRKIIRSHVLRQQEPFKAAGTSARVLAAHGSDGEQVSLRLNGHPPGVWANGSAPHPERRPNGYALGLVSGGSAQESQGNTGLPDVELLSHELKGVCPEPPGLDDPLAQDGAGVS

## human Golf protein (from UniProt P38405 2-381)
[1]
  induction of GTPγS agonist signal, A2a receptor co-expressed with Golf in Sf9 cells: 0.2
[2]
  efficacy (Emax) of dopamine-induced [35S]-GTPγS binding, membranes of Sf9 cells co-expressing DRD1 and Golf: 231%
